Test [1] deals with TRAIL-R2-Fc (human, UniProt O14763 56-210). Kind of test: ELISA. A general note: ELISA stands for enzyme-linked immunosorbent assay.
For test [2], the target named is Colo 205. Kind of test: flow cytometry; Colo205 cells. Background: A flow cytometer gives signals particle by particle.
In test [3] the target is HT1080. Kind of test: flow cytometry; HT1080 cells.

B1: scTRAIL3-FAVGGAA (ligand)
chain: LDDYKDDDDKEFGGAAAHITGTRGRSNTLSSPNSKNEKALGRKINSWESSRSGHSFLSNLHLRNGELVIHEKGFYYIYSQTYFRFQEEIKENTKNDKQMVQYIYKYTSYPDPILLMKSARNSCWSKDAEYGLYSIYQGGIFELKENDRIFVSVTNEHLIDMDHEASFFGAFAVGGAAAHITGTRGRSNTLSSPNSKNEKALGRKINSWESSRSGHSFLSNLHLRNGELVIHEKGFYYIYSQTYFRFQEEIKENTKNDKQMVQYIYKYTSYPDPILLMKSARNSCWSKDAEYGLYSIYQGGIFELKENDRIFVSVTNEHLIDMDHEASFFGAFAVGGAAAHITGTRGRSNTLSSPNSKNEKALGRKINSWESSRSGHSFLSNLHLRNGELVIHEKGFYYIYSQTYFRFQEEIKENTKNDKQMVQYIYKYTSYPDPILLMKSARNSCWSKDAEYGLYSIYQGGIFELKENDRIFVSVTNEHLIDMDHEASFFGAFAVG
For orientation: EC50 means the concentration needed to bring the measured effect to its halfway point. Higher therefore signals weaker potency. B1: the results for the EC50 in test [1] and in test [2] were 5.25 nM and 4.1 nM, respectively.

B2: scTRAIL3-FLVGGVA (ligand)
chain: LDDYKDDDDKEFGGVAAHITGTRGRSNTLSSPNSKNEKALGRKINSWESSRSGHSFLSNLHLRNGELVIHEKGFYYIYSQTYFRFQEEIKENTKNDKQMVQYIYKYTSYPDPILLMKSARNSCWSKDAEYGLYSIYQGGIFELKENDRIFVSVTNEHLIDMDHEASFFGAFLVGGVAAHITGTRGRSNTLSSPNSKNEKALGRKINSWESSRSGHSFLSNLHLRNGELVIHEKGFYYIYSQTYFRFQEEIKENTKNDKQMVQYIYKYTSYPDPILLMKSARNSCWSKDAEYGLYSIYQGGIFELKENDRIFVSVTNEHLIDMDHEASFFGAFLVGGVAAHITGTRGRSNTLSSPNSKNEKALGRKINSWESSRSGHSFLSNLHLRNGELVIHEKGFYYIYSQTYFRFQEEIKENTKNDKQMVQYIYKYTSYPDPILLMKSARNSCWSKDAEYGLYSIYQGGIFELKENDRIFVSVTNEHLIDMDHEASFFGAFLVG
Consider B2, for which a half-maximal response in test [2] (EC50) required 12.7 nM.

B3: scTRAIL3-FLVGGAA (ligand)
chain: LDDYKDDDDKEFGGAAAHITGTRGRSNTLSSPNSKNEKALGRKINSWESSRSGHSFLSNLHLRNGELVIHEKGFYYIYSQTYFRFQEEIKENTKNDKQMVQYIYKYTSYPDPILLMKSARNSCWSKDAEYGLYSIYQGGIFELKENDRIFVSVTNEHLIDMDHEASFFGAFLVGGAAAHITGTRGRSNTLSSPNSKNEKALGRKINSWESSRSGHSFLSNLHLRNGELVIHEKGFYYIYSQTYFRFQEEIKENTKNDKQMVQYIYKYTSYPDPILLMKSARNSCWSKDAEYGLYSIYQGGIFELKENDRIFVSVTNEHLIDMDHEASFFGAFLVGGAAAHITGTRGRSNTLSSPNSKNEKALGRKINSWESSRSGHSFLSNLHLRNGELVIHEKGFYYIYSQTYFRFQEEIKENTKNDKQMVQYIYKYTSYPDPILLMKSARNSCWSKDAEYGLYSIYQGGIFELKENDRIFVSVTNEHLIDMDHEASFFGAFLVG
In test [2], B3 showed an EC50 of 4.2 nM.

B4: Db10-Glyco-scTRAIL3-FAVSGAA (other)
chain: LEASDYKDDDDKGAEVQLVESGGGLVQPGGSLRLSCAASGFSLTNYGVHWVRQAPGKGLEWLGVIWSGGNTDYNTPFTSRFTISRDNSKNTLYLQMNSLRAEDTAVYYCARALTYYDYEFAYWGQGTTVTVSSGGGGSGGGGSDIQLTQSPSFLSASVGDRVTITCRASQSIGTNIHWYQQKPGKAPKLLIKYASESISGVPSRFSGSGSGTEFTLTISSLQPEDFATYYCQQNNNWPTTFGAGTKLEIKRAAAGNGTSNGTSEFGGAAAHITGTRGRSNTLSSPNSKNEKALGRKINSWESSRSGHSFLSNLHLRNGELVIHEKGFYYIYSQTYFRFQEEIKENTKNDKQMVQYIYKYTSYPDPILLMKSARNSCWSKDAEYGLYSIYQGGIFELKENDRIFVSVTNEHLIDMDHEASFFGAFAVSGAAAHITGTRGRSNTLSSPNSKNEKALGRKINSWESSRSGHSFLSNLHLRNGELVIHEKGFYYIYSQTYFRFQEEIKENTKNDKQMVQYIYKYTSYPDPILLMKSARNSCWSKDAEYGLYSIYQGGIFELKENDRIFVSVTNEHLIDMDHEASFFGAFAVSGAAAHITGTRGRSNTLSSPNSKNEKALGRKINSWESSRSGHSFLSNLHLRNGELVIHEKGFYYIYSQTYFRFQEEIKENTKNDKQMVQYIYKYTSYPDPILLMKSARNSCWSKDAEYGLYSIYQGGIFELKENDRIFVSVTNEHLIDMDHEASFFGAFAVS
modifications: glycosylated connecting peptide
In test [3], B4 showed a concentration giving a half-maximal response (EC50) of 3 nM. This counts as single-digit nanomolar.

The values are drawn from patent US20180094059A1 (published 2018).
